The text below walks through data of patent publication US20250230247A1 (DREN BIO, published 2025).

In test [1] the target is T1, Trop-2 (human, UniProt P09758 27-323).
T1 construct: whole, on cells; also called Trop-2 on A431, HeLa, BxPC-3, SiHa and Capan-2 cells
T1 sequence (looked up): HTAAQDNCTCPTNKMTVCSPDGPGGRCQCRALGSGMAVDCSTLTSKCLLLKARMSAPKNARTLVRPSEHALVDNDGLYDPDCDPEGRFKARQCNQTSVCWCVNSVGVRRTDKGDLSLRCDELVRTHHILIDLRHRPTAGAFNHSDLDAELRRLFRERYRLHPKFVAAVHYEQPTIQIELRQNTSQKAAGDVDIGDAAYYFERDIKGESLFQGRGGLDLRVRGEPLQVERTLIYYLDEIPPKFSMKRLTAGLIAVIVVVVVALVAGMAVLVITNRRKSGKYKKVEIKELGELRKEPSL
In words: flow cytometry on A431 cells (MFI). For orientation: Flow cytometry measures light scatter and fluorescence of single cells or particles in a stream.

Test [2] deals with T2, human Dectin-1 isoform A (human, UniProt Q9BXN2 1-247).
T2 construct: also called hDectin-1a; Dectin-1 on HEK-Blue hDectin-1a cells
T2 sequence: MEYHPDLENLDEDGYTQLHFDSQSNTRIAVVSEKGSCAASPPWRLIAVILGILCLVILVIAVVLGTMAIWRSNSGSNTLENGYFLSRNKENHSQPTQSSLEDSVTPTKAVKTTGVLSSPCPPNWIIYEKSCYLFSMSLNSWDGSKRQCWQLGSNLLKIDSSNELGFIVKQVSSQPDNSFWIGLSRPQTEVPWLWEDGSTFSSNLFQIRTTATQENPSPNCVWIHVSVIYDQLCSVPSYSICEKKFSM
In words: flow cytometry on HEK Blue Dectin 1a cells (MFI).

For test [3], the target named is T3, human Dectin-1 (biosensor tests of Tables 3, 4A and 9; construct not stated) (human, UniProt Q9BXN2 66-247, limits assumed).
T3 construct: also called hDectin-1
T3 sequence (looked up): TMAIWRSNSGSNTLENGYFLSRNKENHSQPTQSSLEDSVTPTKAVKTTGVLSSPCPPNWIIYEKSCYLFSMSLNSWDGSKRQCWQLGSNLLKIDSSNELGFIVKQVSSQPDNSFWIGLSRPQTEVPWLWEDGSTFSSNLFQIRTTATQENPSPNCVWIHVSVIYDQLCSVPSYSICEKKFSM
In words: Fab K dis, run 1.

The target of test [4] is T3, human Dectin-1 (biosensor tests of …). Description: Fab K dis, run 2.
Test [5] shares this target. Description: Fab K dis, run 3.
Test [6] shares this target. Description: Fab K dis, average of 3.
Test [7] has the same target. In words: Fab K dis, run 1. The source holds these as a separate data set.
Test [8] shares this target. Description: Fab K dis, run 2. This is another data set of the same source.
Test [9] shares this target. Description: Fab K dis, run 3. The source holds these as a separate data set.
Test [10] has the same target. Description: Fab K dis, average of 3. The source holds these as a separate data set.

B1: 2M24.116/Trop2 bispecific antibody (bispecific antibody, V domains shown)
VH 1: QVQLVQSGAEVKKPGASVKVSCKASGYTFTDYYMHWVRQAPGQGLEWMGWINPNEGDTNYAQKFQERITMTRDTSISTAYMELSRLRSDDTAVYYCARNTGAYSFGYWGQGTLVTVSS
VL 1: DIQMTQSPSSVSASVGDRVTITCRASQGISSWLAWYQQKPGKAPKLLIYGASDLQSGVPSRFSGSGSGTDFTLTISSLQPEDFATYYCHQAYSFPFTFGPGTKVDIK
VH 2: QVQLQQSGSELKKPGASVKVSCKASGYTFTNYGMNWVKQAPGQGLKWMGWINTYTGEPTYTDDFKGRFAFSLDTSVSTAYLQISSLKADDTAVYFCARGGFGSSYWYFDVWGQGSLVTVSS
VL 2: DIQLTQSPSSLSASVGDRVSITCKASQDVSIAVAWYQQKPGKAPKLLIYSASYRYTGVPDRFSGSGSGTDFTLTISSLQPEDFAVYYCQQHYITPLTFGAGTKVEIK
notes: hIgG1
By EC50 is commonly meant the concentration giving half of the maximal effect. A higher EC50 goes with weaker potency. For the molecule B1, the EC50 was 8.35 nM in [1] and 1.76 nM in [2].

B2: parental anti-Trop2 monospecific antibody (antibody, V domains shown)
VH: QVQLQQSGSELKKPGASVKVSCKASGYTFTNYGMNWVKQAPGQGLKWMGWINTYTGEPTYTDDFKGRFAFSLDTSVSTAYLQISSLKADDTAVYFCARGGFGSSYWYFDVWGQGSLVTVSS
VL: DIQLTQSPSSLSASVGDRVSITCKASQDVSIAVAWYQQKPGKAPKLLIYSASYRYTGVPDRFSGSGSGTDFTLTISSLQPEDFAVYYCQQHYITPLTFGAGTKVEIK
Turning to B2, it took 5.21 nM to reach a half-maximal effect in test [1] (EC50).

B3: 2M24A.30 hFab L1 (Fab, V domains shown)
VH: QVQLVQSGAEVKKPGASVKVSCKSSGYTFTDYYIHWVRQAPGQGLEWMGWINPNSGDTNYAQKFQGRITMTRDTSISTAYLELSRLRSDDTAVFYCARNSGSYSFGYWGQGTLVTVSS
VL: DIQMTQSPSSVSASVGDRVTITCRASQGISSWLAWYQQKPGKAPKLLIFGASSLQSGVPSRFSGSGSGTDFTLTISSLQPEDFATYYCQQAYSFPFTFGPGTKVDIE
notes: Fab; also called 2M24.L1
Broadly, the koff is the first-order rate constant of dissociation. A higher koff goes with fast dissociation. Turning to B3, the koff was determined as 0.00631 s⁻¹ in [3], 0.00208 s⁻¹ in test [4], 0.00213 s⁻¹ in test [5] and 0.00351 s⁻¹ in [6].

B4: 2M24A.28 hFab H6 (Fab, V domains shown)
VH: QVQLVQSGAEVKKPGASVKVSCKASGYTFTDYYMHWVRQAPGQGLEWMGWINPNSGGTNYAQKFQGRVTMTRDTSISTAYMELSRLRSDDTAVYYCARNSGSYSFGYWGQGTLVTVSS
VL: DIQMTQSPSSVSASVGDRVTITCRASQGISSWLAWYQQKPGKAPKLLIFGASSLQSGVPSRFSGSGSGTDFTLTVSSLQPEDFATYYCQQAYSFPFTFGPGTKVDIE
notes: Fab; also called 2M24.H6
Take B4: the koff worked out at 0.00412 s⁻¹ in test [7], 0.000995 s⁻¹ in test [8], 0.00151 s⁻¹ in test [9] and 0.00221 s⁻¹ in test [10].

B5: 2M24A.32 hFab L3 (Fab, V domains shown)
VH: QVQLVQSGAEVKKPGASVKVSCKSSGYTFTDYYIHWVRQAPGQGLEWMGWINPNSGDTNYAQKFQGRITMTRDTSISTAYLELSRLRSDDTAVFYCARNSGSYSFGYWGQGTLVTVSS
VL: DIQMTQSPSSVSASVGDRVTITCRASQGISSWLAWYQQKPGKAPKLLIFAASSLQSGVPSRFSGSGSGTDFTLTISSLQPEDFATYYCQQAYSFPFTFGPGTKVDIE
notes: Fab; also called 2M24.L3
B5: the koff amounted to 0.00671 s⁻¹ in test [3], 0.00223 s⁻¹ in test [4], 0.00233 s⁻¹ in test [5] and 0.00376 s⁻¹ in [6].

B6: 2M24A.31 hFab L2 (Fab, V domains shown)
VH: QVQLVQSGAEVKKPGASVKVSCKSSGYTFTDYYIHWVRQAPGQGLEWMGWINPNSGDTNYAQKFQGRITMTRDTSISTAYLELSRLRSDDTAVFYCARNSGSYSFGYWGQGTLVTVSS
VL: DIQMTQSPSSVSASVGDRVTITCRASQGISSWLAWYQQKPGKAPKLLIYGASSLQSGVPSRFSGSGSGTDFTLTISSLQPEDFATYYCQQAYSFPFTFGPGTKVDIE
notes: Fab; also called 2M24.L2
For B6, the koff in [3] was 0.00635 s⁻¹; in test [4], 0.00236 s⁻¹; in test [5], 0.00239 s⁻¹; in test [6], 0.0037 s⁻¹.

B7: 2M24A.27 hFab H5 (Fab, V domains shown)
VH: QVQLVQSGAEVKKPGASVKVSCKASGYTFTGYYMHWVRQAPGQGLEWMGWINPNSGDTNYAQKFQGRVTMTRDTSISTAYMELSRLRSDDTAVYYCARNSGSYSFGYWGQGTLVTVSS
VL: DIQMTQSPSSVSASVGDRVTITCRASQGISSWLAWYQQKPGKAPKLLIFGASSLQSGVPSRFSGSGSGTDFTLTVSSLQPEDFATYYCQQAYSFPFTFGPGTKVDIE
notes: Fab; also called 2M24.H5
On to B7, for which the koff in [7] was 0.00624 s⁻¹; in test [8], 0.00195 s⁻¹; in test [9], 0.0032 s⁻¹; in test [10], 0.0038 s⁻¹.

B8: 2M24A.23 hFab H1 (Fab, V domains shown)
VH: QVQLVQSGAEVKKPGASVKVSCKSSGYTFTDYYIHWVRQAPGQGLEWMGWINPNSGDTNYAQKFQGRVTMTRDTSISTAYMELSRLRSDDTAVYYCARNSGSYSFGYWGQGTLVTVSS
VL: DIQMTQSPSSVSASVGDRVTITCRASQGISSWLAWYQQKPGKAPKLLIFGASSLQSGVPSRFSGSGSGTDFTLTVSSLQPEDFATYYCQQAYSFPFTFGPGTKVDIE
notes: Fab; also called 2M24.H1
On to B8, for which the koff is 0.00841 s⁻¹ in [7], 0.00143 s⁻¹ in test [8], 0.00204 s⁻¹ in test [9] and 0.00396 s⁻¹ in test [10].

B9: 2M24A.25 hFab H3 (Fab, V domains shown)
VH: QVQLVQSGAEVKKPGASVKVSCKASGYTFTDYYIHWVRQAPGQGLEWMGWINPNSGDTNYAQKFQGRVTMTRDTSISTAYMELSRLRSDDTAVYYCARNSGSYSFGYWGQGTLVTVSS
VL: DIQMTQSPSSVSASVGDRVTITCRASQGISSWLAWYQQKPGKAPKLLIFGASSLQSGVPSRFSGSGSGTDFTLTVSSLQPEDFATYYCQQAYSFPFTFGPGTKVDIE
notes: Fab; also called 2M24.H3
As to B9, the koff stood at 0.00765 s⁻¹ in test [7], 0.00132 s⁻¹ in test [8], 0.00214 s⁻¹ in [9] and 0.0037 s⁻¹ in test [10].

B10: 2M24A.26 hFab H4 (Fab, V domains shown)
VH: QVQLVQSGAEVKKPGASVKVSCKSSGYTFTDYYMHWVRQAPGQGLEWMGWINPNSGDTNYAQKFQGRVTMTRDTSISTAYMELSRLRSDDTAVYYCARNSGSYSFGYWGQGTLVTVSS
VL: DIQMTQSPSSVSASVGDRVTITCRASQGISSWLAWYQQKPGKAPKLLIFGASSLQSGVPSRFSGSGSGTDFTLTVSSLQPEDFATYYCQQAYSFPFTFGPGTKVDIE
notes: Fab; also called 2M24.H4
On to B10, for which the koff in test [7] worked out at 0.0053 s⁻¹; in [8], 0.00102 s⁻¹; in test [9], 0.0016 s⁻¹; in [10], 0.00264 s⁻¹.

B11: 2M24.119/Trop2 bispecific antibody (bispecific antibody, V domains shown)
VH 1: QVQLVQSGAEVKKPGASVKVSCKASGYTFTDYYMHWVRQAPGQGLEWMGWINPNEGDTNYAQKFEGRITMTRDTSISTAYMELSRLRSDDTAVYYCARNTGAYSFGYWGQGTLVTVSS
VL 1: DIQMTQSPSSVSASVGDRVTITCRASQGISSWLAWYQQKPGKAPKLLIYGASDLQSGVPSRFSGSGSGTDFTLTISSLQPEDFATYYCQQAYGFPFTFGPGTKVDIK
VH 2: QVQLQQSGSELKKPGASVKVSCKASGYTFTNYGMNWVKQAPGQGLKWMGWINTYTGEPTYTDDFKGRFAFSLDTSVSTAYLQISSLKADDTAVYFCARGGFGSSYWYFDVWGQGSLVTVSS
VL 2: DIQLTQSPSSLSASVGDRVSITCKASQDVSIAVAWYQQKPGKAPKLLIYSASYRYTGVPDRFSGSGSGTDFTLTISSLQPEDFAVYYCQQHYITPLTFGAGTKVEIK
notes: hIgG1
In the case of B11, the EC50 in [1] stood at 7.87 nM; in [2] it was 1.3 nM.

B12: 2M24A.33 hFab L4 (Fab, V domains shown)
VH: QVQLVQSGAEVKKPGASVKVSCKSSGYTFTDYYIHWVRQAPGQGLEWMGWINPNSGDTNYAQKFQGRITMTRDTSISTAYLELSRLRSDDTAVFYCARNSGSYSFGYWGQGTLVTVSS
VL: DIQMTQSPSSVSASVGDRVTITCRASQGISSWLAWYQQKPGKAPKLLIYAASSLQSGVPSRFSGSGSGTDFTLTISSLQPEDFATYYCQQAYSFPFTFGPGTKVDIE
notes: Fab; also called 2M24.L4
Turning to B12, the koff in [3] is 0.00615 s⁻¹; in [4], 0.00278 s⁻¹; in test [5], 0.00314 s⁻¹; in [6], 0.00402 s⁻¹.

B13: 2M24A.24 hFab H2 (Fab, V domains shown)
VH: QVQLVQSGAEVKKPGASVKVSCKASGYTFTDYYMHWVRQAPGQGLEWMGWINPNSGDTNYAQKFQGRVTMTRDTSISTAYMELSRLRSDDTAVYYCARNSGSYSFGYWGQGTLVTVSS
VL: DIQMTQSPSSVSASVGDRVTITCRASQGISSWLAWYQQKPGKAPKLLIFGASSLQSGVPSRFSGSGSGTDFTLTVSSLQPEDFATYYCQQAYSFPFTFGPGTKVDIE
notes: Fab; also called 2M24.H2
Regarding B13, the koff is 0.00826 s⁻¹ in [7], 0.000616 s⁻¹ in test [8], 0.0015 s⁻¹ in [9] and 0.00346 s⁻¹ in [10].
